Laboratory results: US20030092067A1

Key:
[1] = target: Abz-1.Naph-Val-Ala-Nle-Ser-Tyr(NO2)-Asp-NH2
[2] = target: Abz-2.Naph-Val-Ala-Nle-Ser-Tyr(NO2)-Asp-NH2
[3] = target: Abz-2Nal-Ala-hLeu-Ser-Tyr(NO2)-Asp-NH2
[4] = target: Abz-3.Pyr-Val-Ala-Nle-Ser-Tyr(NO2)-Asp-NH2
[5] = target: Abz-3pyr-Ala-hLeu-Ser-Tyr(NO2)-Asp-NH2
[6] = target: Abz-ACH-Ala-hLeu-Ser-Tyr(NO2)-Asp-NH2
[7] = target: Abz-Ala-Nle-Ser-Tyr(NO2)-Asp-NH2
[8] = target: Abz-Bip-Ala-hLeu-3pyr-Tyr(NO2)-Asp-NH2
[9] = target: Abz-Bip-Ala-hLeu-Abu-Tyr(NO2)-Asp-NH2
[10] = target: Abz-Bip-Ala-hLeu-Asp-Tyr(NO2)-Asp-NH2
[11] = target: Abz-Bip-Ala-hLeu-Bu^tGly-Tyr(NO2)-Asp-NH2
[12] = target: Abz-Bip-Ala-hLeu-Cha-Tyr(NO2)-Asp-NH2
[13] = target: Abz-Bip-Ala-hLeu-Hyp-Tyr(NO2)-Asp-NH2
[14] = target: Abz-Bip-Ala-hLeu-Leu-Tyr(NO2)-Asp-NH2
[15] = target: Abz-Bip-Ala-hLeu-Lys-Tyr(NO2)-Asp-NH2
[16] = target: Abz-Bip-Ala-hLeu-Met(O)-Tyr(NO2)-Asp-NH2
[17] = target: Abz-Bip-Ala-hLeu-Ser-Tyr(NO2)-Asp-NH2
[18] = target: Abz-Bip-Ala-hLeu-Thr-Tyr(NO2)-Asp-NH2
[19] = target: Abz-Bip-Ala-hLeu-Tyr-Tyr(NO2)-Asp-NH2
[20] = target: Abz-Bip-Val-Ala-Nle-Ser-Tyr(NO2)-Asp-NH2
[21] = target: Abz-Cha-Ala-hLeu-Ser-Tyr(NO2)-Asp-NH2
[22] = target: Abz-Cmpi-Nle-Ser-Tyr(NO2)-ASP-NH2
[23] = target: Abz-DVal-Ala-hLeu-Ser-Tyr(NO2)-Asp-NH2
[24] = target: Abz-Deg-Ala-Nle-Ser-Tyr(NO2)-Asp-NH2
[25] = target: Abz-Gln-Ala-hLeu-Ser-Tyr(NO2)-Asp-NH2
[26] = target: Abz-Glu-Val-Ala-Nle-Ser-Tyr(NO2)-Asp-NH2
[27] = target: Abz-Hyp-Val-Ala-Nle-Ser-Tyr(NO2)-Asp-NH2
[28] = target: Abz-Leu-Ala-hLeu-Ser-Tyr(NO2)-Asp-NH2
[29] = target: Abz-Lys-Ala-hLeu-Ser-Tyr(NO2)-Asp-NH2
[30] = target: Abz-Lys-Val-Ala-Nle-Ser-Tyr(NO2)-Asp-NH2
[31] = target: Abz-Met(O)-Ala-hLeu-Ser-Tyr(NO2)-Asp-NH2
[32] = target: Abz-Nle-Ser-Tyr(NO2)-Asp-NH2
[33] = target: Abz-Phe-Val-Ala-Nle-Ser-Tyr(NO2)-Asp-NH2
[34] = target: Abz-Tic-Ala-hLeu-Ser-Tyr(NO2)-Asp-NH2
[35] = target: Abz-Val-(NMe)Ala-Nle-Ser-Tyr(NO2)-ASP-NH2
[36] = target: Abz-Val-2Nal-hLeu-Ser-Tyr(NO2)-Asp-NH2
[37] = target: Abz-Val-3pyr-hLeu-Ser-Tyr(NO2)-Asp-NH2
[38] = target: Abz-Val-ACH-hLeu-Ser-Tyr(NO2)-Asp-NH2
[39] = target: Abz-Val-ACP-hLeu-Ser-Tyr(NO2)-Asp-NH2
[40] = target: Abz-Val-Aib-Nle-Ser-Tyr(NO2)-Asp-NH2
[41] = target: Abz-Val-Ala-(NMe)Nle-Ser-Tyr(NO2)-Asp-NH2
[42] = target: Abz-Val-Ala-3pyr-Ser-Tyr(NO2)-Asp-NH2
[43] = target: Abz-Val-Ala-ACH-Ser-Tyr(NO2)-Asp-NH2
[44] = target: Abz-Val-Ala-ACP-Ser-Tyr(NO2)-Asp-NH2
[45] = target: Abz-Val-Ala-Aib-Ser-Tyr(NO2)-Asp-NH2
[46] = target: Abz-Val-Ala-Cha-Ser-Tyr(NO2)-Asp-NH2
[47] = target: Abz-Val-Ala-DNle-Ser-Tyr(NO2)-Asp-NH2
[48] = target: Abz-Val-Ala-Gln-Ser-Tyr(NO2)-Asp-NH2
[49] = target: Abz-Val-Ala-His-Ser-Tyr(NO2)-Aso-NH2
[50] = target: Abz-Val-Ala-Hyp-Ser-Tyr(NO2)-Asp-NH2
[51] = target: Abz-Val-Ala-Lys-Ser-Tyr(NO2)-Asp-NH2
[52] = target: Abz-Val-Ala-Nle-Ser-Ala-Asp-NH2
[53] = target: Abz-Val-Ala-Nle-Ser-Lys-Asp-NH2
[54] = target: Abz-Val-Ala-Nle-Ser-Phe-Asp-NH2
[55] = target: Abz-Val-Ala-Nle-Ser-Tyr(NO2)-Asp-NH2
[56] = target: Abz-Val-Ala-Nle-Ser-Tyr(NO2)-NH2
[57] = target: Abz-Val-Ala-Nle-Ser-Tyr-Asp-NH2
[58] = target: Abz-Val-Ala-Nle-Ser-eAHA-Asp-NH2
[59] = target: Abz-Val-Ala-Thr-Ser-Tyr(NO2)-Asp-NH2
[60] = target: Abz-Val-Ala-hLeu-Ser-Tyr(NO2)-Asp-NH2
[61] = target: Abz-Val-Cha-hLeu-Ser-Tyr(NO2)-Asp-NH2
[62] = target: Abz-Val-DAla-hLeu-Ser-Tyr(NO2)-Asp-NH2
[63] = target: Abz-Val-DGln-hLeu-Ser-Tyr(NO2)-Asp-NH2
[64] = target: Abz-Val-DLys-hLeu-Ser-Tyr(NO2)-Asp-NH2
[65] = target: Abz-Val-Lys-hLeu-Ser-Tyr(NO2)-Asp-NH2
[66] = target: Abz-Val-Met(O)-hLeu-Ser-Tyr(NO2)-Asp-NH2
[67] = target: Abz-Val-Tic-hLeu-Ser-Tyr(NO2)-Asp-NH2
[68] = target: Abz-p.Aba-Nle-Ser-Tyr(NO2)-Asp-NH2
[69] = target: Ac-Val-Ala-Nie-Ser-Tyr(NO2)-Asp-NH2
[70] = target: Ac-Val-Ala-Nle-Ser-Tyr(NO2)-NH2
[71] = target: Bz(2-carboxy)-Val-Ala-Nle-Ser-Tyr(NO2)-NH2
[72] = target: Bz-Val-Ala-Nle-Ser-Tyr(NO2)-NH2
[73] = target: Bz-Val-Ala-Nle-Ser-Tyr(NO2)-NH2 (second printing, row r51)
[74] = target: Bz-Val-Ala-Statine-Ser-eAha-NH2
[75] = target: Chex-Val-Ala-Nle-Ser-Tyr(NO2)-NH2
[76] = target: H-Ala-Nle-Ser-Tyr(NO2)-ASP-NH2
[77] = target: H-Ala-Nle-Ser-Tyr(NO2)-Asp-NR2
[78] = target: H-Val-Ala-Nle-Ser-Tyr(NO2)-NH2
[79] = target: H-Val-Ala-Nle-Ser-TyrNO2-ASp-NH2
[80] = target: Piv-Val-Ala-Nle-Ser-Tyr(NO2)-NH2
[81] = target: n-Bu-Val-Ala-Nle-Ser-Tyr(NO2)-NH2
[82] = target: nBu-D.Ser-D.Nle-D.Ala-D.Val-p.Aba-NH2

B1: Der pI (protein)
chain: TNACSINGNAPAEIDLRQMRTVTPIRMQGGCGSCWAFSGVAATESAYLAYRNQSLDLAEQELVDCASQHGCHGDTIPRGIEYIQHNGVVQESYYRYVAREQSCRRPNAQRFGISNYCQIYPPNVNKIREALAQTHSAIAVIIGIKDLDAFRHYDGRTIIQRDNGYQPNYHAVNIVGYSNAQGVDYWIVRNSWDTNWGDNGYGYFAANIDLMMIEEYPYVVIL
Measured Km [1]: 17 µM | Measured Km (µM) [2]: NM | Measured Km [3]: 15 µM | Measured Km (µM) [4]: NM | Measured Km [5]: > 10 µM | Measured Km (µM) [6]: NS | Measured Km (µM) [7]: NM | Measured Km [8]: 4 µM | Measured Km [9]: 1.7 µM | Measured Km [10]: 5 µM | Measured Km [11]: 4 µM | Measured Km [12]: 2.5 µM | Measured Km [13]: 4 µM | Measured Km [14]: 3.7 µM | Measured Km [15]: 2 µM | Measured Km [16]: 5 µM | Measured Km [17]: 2.5 µM | Measured Km [18]: 2.5 µM | Measured Km [19]: 3 µM | Measured Km [20]: 10 µM | Measured Km [21]: 9 µM | Measured Km (µM) [22]: NS | Measured Km (µM) [23]: NS | Measured Km (µM) [24]: NS | Measured Km [25]: 12 µM | Measured Km [26]: 20 µM | Measured Km (µM) [27]: NS | Measured Km [28]: 18 µM | Measured Km [29]: > 15 µM | Measured Km [30]: 15 µM | Measured Km [31]: 20 µM | Measured Km (µM) [32]: NS | Measured Km (µM) [33]: NM | Measured Km (µM) [34]: NS | Measured Km (µM) [35]: NS | Measured Km (µM) [36]: NS | Measured Km (µM) [37]: NS | Measured Km (µM) [38]: NS | Measured Km (µM) [39]: NS | Measured Km (µM) [40]: NS | Measured Km (µM) [41]: NS | Measured Km [42]: 10 µM | Measured Km (µM) [43]: NS | Measured Km (µM) [44]: NS | Measured Km (µM) [45]: NS | Measured Km [46]: 5 µM | Measured Km (µM) [47]: NS | Measured Km [48]: 6 µM | Measured Km [49]: > 20 µM | Measured Km (µM) [50]: NS | Measured Km [51]: 14 µM | Measured Km (µM) [52]: NM | Measured Km (µM) [53]: NM | Measured Km (µM) (Abz-Val-Ala-Nle-Ser-NH2): NM | Measured Km (µM) [54]: NM | Measured Km [55]: 12 µM | kcat/Km [55]: 35000 M⁻¹ s⁻¹ | Measured Km (µM) [56]: NM | cleavage rate (rank order) [56]: Bz>n-But>Piv>Bz(2-carboxy)>Abz | Measured Km (µM) [57]: NM | Measured Km (µM) [58]: NM | Measured Km [59]: 6 µM | Measured Km [60]: 4 µM | Measured Km (µM) [61]: NS | Measured Km (µM) [62]: NS | Measured Km (µM) [63]: NS | Measured Km (µM) [64]: NS | Measured Km [65]: 35 µM | Measured Km [66]: 35 µM | Measured Km (µM) [67]: NS | Measured Km (µM) [68]: NS | Measured Km (µM) [69]: NS | Measured Km (µM) [70]: NS | Measured Km (µM) [71]: NM^a | cleavage rate (rank order) [71]: Bz>n-But>Piv>Bz(2-carboxy)>Abz | Measured Km (µM) [72]: NM^a | cleavage rate (rank order) [72]: Bz>n-But>Piv>Bz(2-carboxy)>Abz | Measured Km (µM) [73]: NM^a | Measured Km (µM) [74]: NS | Measured Km (µM) [75]: NM^a | Measured Km (µM) [76]: NS | Measured Km (µM) [77]: NS | Measured Km (µM) [78]: NS | Measured Km (µM) [79]: NS | Measured Km (µM) [80]: NM^a | cleavage rate (rank order) [80]: Bz>n-But>Piv>Bz(2-carboxy)>Abz | Measured Km (µM) [81]: NM^a | cleavage rate (rank order) [81]: Bz>n-But>Piv>Bz(2-carboxy)>Abz | Measured Km (µM) [82]: NS
